In paper PMC5736220:
pKd: −log10 of the molar value.

What was measured:
[1] = biological target: protocadherin-15 EC1+2 I22A, His-tagged (mouse) (UniProt Q99PJ1); assay: thermal scanning (thermal stability shift assay with SYPRO orange); pcdh15 fixed at 0.1 mg/mL (~4 μM), cdh23 0.1 to 0.5 mg/mL (~4 to 20 μM; cdh23:pcdh15 1:1 to 5:1); SEC buffer (20 mM Tris-HCl pH 7.5, 150 mM KCl, 50 mM NaCl, 2 mM CaCl2); 10 to 95°C in 0.2°C steps, 5 s equilibration; read-out: shift of the Tm of pcdh15 (ΔTm)
[2] = biological target: pcdh15 (Mus musculus) (UniProt Q99PJ1); assay: ITC; conditions: cited from earlier work

Row | Substance | ΔTm of pcdh15 at cdh23:pcdh15 1:1 [1] | ΔTm of pcdh15 at cdh23:pcdh15 2:1 [1] | ΔTm of pcdh15 at cdh23:pcdh15 3:1 [1] | ΔTm of pcdh15 at cdh23:pcdh15 4:1 [1] | ΔTm of pcdh15 at cdh23:pcdh15 5:1 [1] | pKd [2]
1 | cadherin-23 EC1+2, wild type, His-tagged (from UniProt Q99PF4 24-228) (domain or fragment) | 0.5 °C | 0.7 °C | 1 °C | 1.1 °C | 1 °C | 
2 | cdh23 (from UniProt Q99PF4) |  |  |  |  |  | 5.54
